Test results as given in the DeepSol protein solubility set.

Experiment: soluble on expression in E. coli; label from the status in PepcDB or PDB records

Soluble on expression in E. coli, not soluble:
MGHHHHHHSHMPPGGHIESGASFSPSAGSDGDKGLKPREEGEAPEAGPCLASQLAPVQWVAPPRLLLRLIFIDLPALLIAPTAESSAEEDEEPHDEGQSSEDQAPIANGLIVIVERVHVPLGAAATVHRQPSHFPR, MSKTYHFIGIKGSGMSALALMLHQMGHNVQGSDVDKYYFTQRGLEQAGVTILPFSPNNISEDLEIIAGNAFRPDNNEELAYVIEKGYQFKRYHEFLGDFMRQFTSLGVAGAHGKTSTTGLLAHVLKNITDTSFLIGDGTGRGSANANYFVFEADEYERHFMPYHPEYSIITNIDFDHPDYFTGLEDVFNAFNDYAKQVQKGLFIYGEDPKLHEITSEAPIYYYGFEDSNDFIAKDITRTVNGSDFKVFYNQEEIGQFHVPAYGKHNILNATAVIANLYIMGIDMALVAEHLKTFSGVKRRFTEKIIDDTVIIDDFAHHPTEIIATLDAARQKYPSKEIVAIFQPHTFTRTIALLDEFAHALSQADSVYLAQIYGSAREVDNGEVKVEDLAAKIVKHSDLVTVENVSPLLNHDNAVYVFMGAGDIQLYERSFEELLANLTKNTQ, MHLRLRTKNGLITITVSQQCTIRELSEEIERKTGIEVAKQKILYGFPQRELRADADKPVESVLQSGDSLTVDKLSAETEQERTVESSPASTENAYVRRKVPDDNSCLFHAICYVFRSGSVAQLRHIISETVRLNPDLYTEAFLGKSNHEYSRWILLPETWGGAIELSILSKYFQTEISVFDIQTLRLDRYGEAENYEERVFLLYDGIHYDPIARAFLGASREYDVTVFKIWDNEALVGAKSVAEEANKNRQYTDLASFTLMCRNCGAKLKGETSAVEHAKQTGHTNFTEA, MKQVPPAAPVAPWLGGKKRLHPLILERIEAIPHRAYVEPFVGMGGIFLRRRFRPRLEVMNDRNGEIINLFRILQRHYPQLLEIMRFQICSRREFDRLRLTDPATLTDLERAARFLYLQRLSFGGKPNGSFGISPGNGPLFSLARLEPLLDAARTRLDGVVFECLDWADLIPRYDTAETLFYLDPPYFGGENDYGKGLFDRAQFARIAEILGSLKGAFLLSINDTPEIRALFGRFHLEPVRLNYSVSAAGSTEAQELLVSNRERIATLL, MSLSLSLAEARRLALAAQGFDGRRTRRSVQRRHLREMLARLGLLQIDSVNALVRSHYLPLFSRLGPYSMTLLDEAAWSVGRHRQLFEYWGHEASLLPLEHYPLMRWRMRQAADGQGIYQQLARFGREQQPLIRQVLQAVREQGALGAGSLSTRQERAGPWWDWSAEKHALEWLFAAGELTVAGRRGFERLYDLPERVFPAELLARPELSEAQAQRELLRMAASALGVATEKDLRDYYRLSPAQSRARLAELVEAGELLPVRVEGWSQPAYCPGEPQVPRRLGASALLSPFDSLVWERARAERLFDFRYRLEIYTPKEKRVYGYYVLPFLYNGRLVGRVDLRAERARERLVVHALHAEANGMDDAALHELAEQLRSMAAWLGLATVAIEGRGELAVRLRGVLLLEHHHHHH, MGSDKIHHHHHHMNELNCLPQDAVLWGHDILPAATASLEAHGLRHPLTFTVEPLRDFHAQHVAPYLKRGAGAFTDLPPHAPDTGVRCALDACLRAEADSILALGGGSVLDAAKAVSHLHQQQTGRYLPIAAYPTTLSGSEYSHYFGVTETVGPQPFKRSYAVRETVPKVVVIDPKLLVNTPRELLLSSAIKGIDHAVEGMRRVGVDHPHAILAAAGVERFFAVLEKWPAGTDTAEALRSGQITTDDLLQLQLAAWQCYFFPASVIYGLSHRIGHILGGTYGLPHSVTSCITLAPVLQACAATYGNKLNIFCHGETTADAAPALAGRIAGVVKRLGLPYRLRDLDFDRARLAQVAALLRQNYAAEVADLGDGADAMLHTFLERLW, MDELNSPLGERAQGASLAHVVWSDPQWLERYPLTFENVLTYFSRSPFYDPTCNNELVRMQMHPELQGEMLYYTQREEELLLGMQGVEYVPLCSSDAHELFIIRKQVRRSADEVHVTNLYYILYGQVYEAPAFSTVLLVRLRQSADFLVRSLGLLRQWLSKKEYGEPGATGHGHEDTLLLQLLRKAQQRNRQL, MGSDKIHHHHHHMITDPQIKACIHQHHLFSALGEEELCRLLGQAAKITLAAHENLFYQGDLAKRFYLVIQGHLQLYRTSLQGQDKVIEVVREGRTFAEALMFSRQASYPVSAQAVSHCTLVSFDSEGYLAMLRGNPDACIAIMAEMSVRLRKDINEVELLSVQNAQSRLLLFLLRNMQKIGDNQGRVELDIPKRVLASRLSIQPETFSRLMKKMVTEGIIGESRGAIDIKDLAKLYTSANMPLANQAIQTSEPLIRSGKAPCQQIAIEMV, MGSDKIHHHHHHMDVMVRPSGMPAESGQEPMADGPVAAPFMRLSSKLRDDLYEEVRHDKTWHQRLTWSRGEWTPGSLTSLASRFERSLRWNKVKPEKENFDSPRPTIQSQSICREHLTGTAPEFLSEETLRILTEAVGSAQIKEAVIDMECWERTFLNSEGCSVTTQGKWFDFYASYNTGAALVRWRDGTSTQEEVSRLARPPLPILGRGVTWSEPRTIDTVRYDLVLLSPTASSVVIHELIGHGCEHFREKIVGLRVGPEELRVVAFPKNGSGFDDEGTPSEEIVLVENGIVRHAVRDRATGGMAPFSGLTKVASHGVKPGSRCTHLKAEGESSQEGVTGVPAERTVWIEHFSAANYHSGRAFFRSGLAWVGSREELLYPLMPFTMSIDIYELASLLWHLDGQTERARSGLCNKDGEFLPTFNFAPKIALRPVVSIRP, MGSDKIHHHHHHMQNLDALLIFARVAEMTSFTRAAESLGIQKGRVSMVIRKLERDVGVALLHRTTRSVQLTEDGRAFYSRARDLLAEVQELQSMFSGNGTRLRGRLRVDMPTELARSVVVPALPQLMAAHPELELELSSTDRRVDLVQEGFDCVIRLGPITDDTLIARPLGKLRMTNAASPGYLARYGIPHTLDDLRTQGHRMVHYTLTLGARHPGWEYPNGDGYASLPLPSAMQVNSVQTYHAAGLAGIGLIQAGYSALAHHIESGALVEVLPDLRPEPLAASLVVAHRRNLSPRVRAFMDWIEGVLAPYLD, MREFGEKIKRLRLAKKISRSEFCGDESELSIRQLIRIENGESRPILTKLKYIAERLGVEDYKLMPSYIELDKEYLELKYFLMRTPTYEDETIAQKKESVFDKIFEEYYDRLPEEERFIIPNYSYLALTNYTVQKLPEKLVEILSFW, MGSDKIHHHHHHMYVVFGATGQTGSAVANALLERNFPVRVVLRSDKAASTWREKGADVAIAEVTDVEAMTAAMREADAVYVMNPPAYNVSDMFALAEQIGECYVEALTNADARKVVLLSSVGSQHASGTGNILTTHILERMLGNLAVPVTVLRAASFMENWGSAAAIAAEQGVLPSFFAPLDRRLPMVSTEDIGRTAAEAMIEDWKGQRIIELHGPIDYSPNDVAAAFAAVLNRNVQAIAVPESDWQATISSFGFSPEAVNSYSEMMRGFNSGHIVFESSPEIETRTGQTAIEAAVDRLTGSKSK

Soluble on expression in E. coli, soluble:
AIASSAIERKSLDPSEEPVDEVLQIPPSLLTCGGCQQNIGDRYFLKAIDQYWHEDCLSCDLCGCRLGEVGRRLYYKLGRKLCRRDYLRLFGQDGLCASCDKRIRAYEMTMRVKDKVYHLECFKCAACQKHFCVGDRYLLINSDIVCEQDIYEWTKINGMI, MFAMTSSAQSPLQQLGGTVVLAGAGKMGGALLTGWLAQGLDGGDVVVIEPHPTEEIAALSARGVRLNASAGDVGAVSTLVVAVKPQMFAEAAAALRGYVGPSTLVVSIMAGKPIAALSEQLGGHVVRAMPNTPAAIGRGITVAVAAGNVTAAQRGIADALLRATGGVEWVDDEALIDAVTAVSGSGPAYVFLLAEELARAGVEAGLPEGLAMTLARATVAGSGELLHRSDLDAATLRKNVTSPGGTTAAALEVLMANDGFRPLLTRAVAAATKRSKELAKAAALEHHHHHH, MNDIAHNLAQVRDKISAAATRCGRSPEEITLLAVSKTKPASAIAEAIDAGQRQFGENYVQEGVDKIRHFQELGVTGLEWHFIGPLQSNKSRLVAEHFDWCHTIDRLRIATRLNDQRPAELPPLNVLIQINISDENSKSGIQLAELDELAAAVAELPRLRLRGLMAIPAPESEYVRQFEVARQMAVAFAGLKTRYPHIDTLSLGMSDDMEAAIAAGSTMVRIGTAIFGARDYSKK, MFVELNNLLNTTPDRAEQGKLTLLCDAKTDGSFLVHHFLSFYLKANCKVCFVALIQSFSHYSIVGQKLGVSLTMARERGQLVFLEGLKSAVDVVFQAQKEPHPLQFLREANAGNLKPLFEFVREALKPVDSGEARWTYPVLLVDDLSVLLSLGMGAVAVLDFIHYCRATVCWELKGNMVVLVHDSGDAEDEENDILLNGLSHQSHLILRAEGLATGFCRDVHGQLRILWRRPSQPAVHRDQSFTYQYKIQDKSVSFFCQRNVSCCSVT, MLPINRQQHILKWLKEEGSLRISDISARFGVSEMTVYRDVNQLVQSNQVIKTAGGITLPVRTPQTDHMCSYCLKPVNQAHSVQLITVNQDIEQLCCAHCAFLRYADKTEEVSHLICRDFLLQTTVSAGSAYFVVNAELNLHCCQPQAIPFATLDHAERFQKGFGGAVCTFDQALEDMLQDRKKRCTCTKK, MHEWGLSEELKIQTKQMIEIAEKELSIMRNAIDKEDECILCKMEDIHHMLANVQTLAATYYIQAYLSPYTESSSFITTAIQHLSARKHGALIVVERNETLEALIQTGTTLNAHLTAPLLESIFYPGNPLHDGAVLVKNNHIVSAANILPLTKSTEVDPELGTRHRAAIGLSEKSDALILVVSEETGRTSFALNGILYTISL, MAHHHHHHMASPASTNPAHDHFETFVQAQLCQDVLSSFQGLCRALGVESGGGLSQYHKIKAQLNYWSAKSLWAKLDKRASQPVYQQGQACTNTKCLVVGAGPCGLRAAVELALLGARVVLVEKRIKFSRHNVLHLWPFTIHDLRALGAKKFYGRFCTGTLDHISIRQLQLLLLKVALLLGVEIHWGVKFTGLQPPPRKGSGWRAQLQPNPPAQLASYEFDVLISAAGGKFVPEGFTIREMRGKLAIGITANFVNGRTVEETQVPEISGVARIYNQKFFQSLLKATGIDLENIVYYKDETHYFVMTAKKQCLLRLGVLRQDLSETDQLLGKANVVPEALQRFARAAADFATHGKLGKLEFAQDARGRPDVAAFDFTSMMRAESSARVQEKHGARLLLGLVGDCLVEPFWPLGTGVARGFLAAFDAAWMVKRWAEGAGPLEVLAERESLYQLLSQTSPENMHRNVAQYGLDPATRYPNLNLRAVTPNQVQDLYDMMDKE, MGDGKPHTAQQTIPYLQMYPDGICRVTEKKYSKSLVFEDINYQLAQADDKTAIFENWCDFLNYFDASVSVQLSFINQGARQEKAQAAIEIPAQDDAFNSIRKEYADMLKNQLEKGNNGLEKCKYITFSIEADNLAAAKARLSRIETDVLNNFKVLGVTARPMNGQERLNVLHGIFHPAGEPFRFSWDWLVPSGLTTKDFIAPSSFHFGDGRTFRMGKKLGAVSFLEILAPELNDRMLSDILDLENGIIVNLHIRSIDQSEAIKTIKRKITDLDKMKIEEQKKAVRSGYDMDIIPSDLATFGSEAKNLLQDLQSRNERMFLLTFLVANMADTKRKLENDIFATAGFAQKNNCALTRLDYLQEAGFMSSIPLGENLIPIQRGLTTSSTAIFIPFITQELFQRGAALYYGLNALSNNMILCDRKQLKNPNGLILGTPGSGKSFAAKREITNIFLITDDDIIICDPEAEYYPLVERLHGQVVHISPTSRHYVNPMDINLNYSEDDNPLALKSDFILSLCELVIGGKEGLQPVEKTVIDRAVRNVYRPFLADPDPAKMPILGDLYNELLKQPEPEAARIAAALELYVSGSLNVFNHRTNVELSNRLVCFDIKQLGKQLKKLGMLIVQDQVWNRVTLNRAEKKATRYYMDEFHLLLKEEQTAAYSVEIWKRFRKWGGIPTAITQNVKDLLSSREVENIFENSDFVLMLNQAQGDRAILAKQLNISPQQMKYVTHTEAGEGLIFYGNVVLPFIDRFPTNTELYRLLTTKPEEVSKPLEHHHHHH
